Results from PMC12059018 (Nature Communications, 2025).

Target: T1, p53-ZF43 bait (UniProt P04637)
T1 construct: also called p53 bait; source: BHK-21, transfected, in cells
Assay: two-hybrid
Conditions: partners not purified

T1 sequence (P04637 whole entry): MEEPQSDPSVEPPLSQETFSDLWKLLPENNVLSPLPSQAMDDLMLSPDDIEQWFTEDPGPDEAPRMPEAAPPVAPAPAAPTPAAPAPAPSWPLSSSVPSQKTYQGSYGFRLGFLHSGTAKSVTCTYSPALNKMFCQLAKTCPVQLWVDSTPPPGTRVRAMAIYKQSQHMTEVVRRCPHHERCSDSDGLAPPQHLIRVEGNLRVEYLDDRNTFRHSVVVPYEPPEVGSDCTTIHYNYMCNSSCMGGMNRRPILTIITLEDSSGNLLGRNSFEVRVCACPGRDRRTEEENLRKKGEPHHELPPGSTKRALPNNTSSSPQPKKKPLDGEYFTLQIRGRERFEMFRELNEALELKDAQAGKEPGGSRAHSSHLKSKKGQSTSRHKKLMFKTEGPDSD

B1: Nb139-VP64 (parental, NLS-containing fusion) (VHH)
VHH: QVQLQESGGGLVQAGGSLRLSCAASERTFSTYAMGWFRQAPGREREFLAQINWSGTTTYYAESVKDRTTISRDNAKNTVYLEMNNLNADDTGIYFCAAHPQRGWGSTLGWTYWGQGTQVTVSS
notes: also called Nb139[WT]; source: BHK-21, transfected, in cells
binding result: binds
